Test results reported in patent publication US20210054043A1 (HADASIT MEDICAL RESEARCH SERVICES AND DEVELOPMENT, published 2021).

B3: Fc-fused ectodomain of SLAMF6^var1 (seSLAMF6_Fc, Creative Biomart) (Fc fusion)
chain: QSSLTPLMVNGILGESVTLPLEFPAGEKVNFITWLFNETSLAFIVPHETKSPEIHVTNPKQGKRLNFTQSYSLQLSNLKMEDTGSYRAQISTKTSAKLSSYTLRILRQLRNIQVTNHSQLFQNMTCELHLTCSVEDADDNVSFRWEALGNTLSSQPNLTVSWDPRISSEQDYTCIAENAVSNLSFSVSAQKLCEDVKIQYTDTKM
notes: Bought reagent, coated on the plate at 1 ug/ml; Only the ectodomain stood in the assay; also called full length seSLAMF6-Fc; SLAMF6^var1 ectodomain (Fc-conjugated); not shown: Fc portion

Key:
Test in all cases: ELISA, seSLAMF6-Fc coated on the plate, anti-His-HRP detection
[1] = biological target: B3
Description: (§1) FIG. 11. seSLAMF6-V3 binding to full length seSLAMF6-Fc using ELISA. seSLAMF6-Fc was pre-coated to MaxiSorb plate. Soluble ectodomains from various SLAM family members (seSLAMF6, seSLAMF6-V3, seSLAMF1, seSLAMF7 and seSLAMF8, all containing 6-Histidine tags) were then added. An anti- Histidine antibody was used for detection.
(§2) MaxiSorb plates were pre-coated overnight with an Fc-fused ectodomain of SLAMF6^var1 (seSLAMF6_Fc, Creative Biomart, at 1 μg/ml and 4° C.). On the next day, the plate was washed and blocked using blocking buffer containing 1% BSA in PBSX1. Next, the plate was incubated for two hours with different concentrations of isolated ectodomains (containing 6-histidine tags) from SLAMF6^var1 (Prospec, seSLAMF6) or SLAMF6^var3 (Novoprotein/Bonopus, seSLAMF6-V3), or from SLAMF1, SLAMF7 or SLAMF8 (seSLAMF1, seSLAMF7 and seSLAMF8, respectively). The amount of receptor-bound ectodomain polypeptides was detected using horseradish peroxidase (HRP)-conjugated antibodies directed to the histidine tag (anti-HIS Abs) and quantified using an ELISA reader.

[2] = biological target: T1, isolated ectodomain of SLAMF1 containing a 6-histidine tag (seSLAMF1) (UniProt Q13291 21-237, limits assumed)
T1 construct: extracellular domain; not shown: 6-histidine tag
T1 sequence (looked up): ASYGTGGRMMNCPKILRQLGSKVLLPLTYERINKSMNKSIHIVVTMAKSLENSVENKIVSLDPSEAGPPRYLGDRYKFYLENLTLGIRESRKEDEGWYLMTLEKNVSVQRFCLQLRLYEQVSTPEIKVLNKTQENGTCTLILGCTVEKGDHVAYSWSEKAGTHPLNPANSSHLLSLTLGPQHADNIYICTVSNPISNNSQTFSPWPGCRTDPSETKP
Description: as §1, §2

[3] = biological target: T2, isolated ectodomain of SLAMF8 containing a 6-histidine tag (seSLAMF8) (UniProt Q9P0V8 23-233, limits assumed)
T2 construct: extracellular domain; not shown: 6-histidine tag
Description: as §1, §2

T2 sequence (Q9P0V8 23-233 limits assumed): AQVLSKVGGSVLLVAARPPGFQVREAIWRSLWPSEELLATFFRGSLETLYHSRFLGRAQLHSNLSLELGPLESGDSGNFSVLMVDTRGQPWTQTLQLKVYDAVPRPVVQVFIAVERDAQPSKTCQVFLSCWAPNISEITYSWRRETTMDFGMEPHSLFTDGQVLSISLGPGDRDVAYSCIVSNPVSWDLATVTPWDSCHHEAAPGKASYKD

B1: isolated ectodomain of SLAMF7 containing a 6-histidine tag (seSLAMF7) (receptor, UniProt Q9NQ25 23-226, looked up)
chain: SGPVKELVGSVGGAVTFPLKSKVKQVDSIVWTFNTTPLVTIQPEGGTIIVTQNRNRERVDFPDGGYSLKLSKLKKNDSGIYYVGIYSSSLQQPSTQEYVLHVYEHLSKPKVTMGLQSNKNGTCVTNLTCCMEHGEEDVIYTWKALGQAANESHNGSILPISWRWGESDMTFICVARNPVSRNFSSPILARKLCEGAADDPDSSM
notes: extracellular domain; not shown: 6-histidine tag
Does B1 bind [1]?
Result: no binding

B2: isolated ectodomain of SLAMF6^var1 containing a 6-histidine tag (Prospec, seSLAMF6) (receptor)
chain: QSSLTPLMVNGILGESVTLPLEFPAGEKVNFITWLFNETSLAFIVPHETKSPEIHVTNPKQGKRLNFTQSYSLQLSNLKMEDTGSYRAQISTKTSAKLSSYTLRILRQLRNIQVTNHSQLFQNMTCELHLTCSVEDADDNVSFRWEALGNTLSSQPNLTVSWDPRISSEQDYTCIAENAVSNLSFSVSAQKLCEDVKIQYTDTKM
notes: Bought reagent; Only the ectodomain stood in the assay; also called isolated SLAMF6^var1 ectodomain; not shown: 6-histidine tag
Does B2 bind [1]?
Result: binds

Does B3 bind [2]?
Result: no binding

Does B3 bind [3]?
Result: no binding

B4: isolated SLAMF6^var3 ectodomain (seSLAMF6^var3), human, C-terminal 6-histidine tag (receptor)
chain: GNVVSVPHETKSPEIHVTNPKQGKRLNFTQSYSLQLSNLKMEDTGSYRAQISTKTSAKLSSYTLRILRQLRNIQVTNHSQLFQNMTCELHLTCSVEDADDNVSFRWEALGNTLSSQPNLTVSWDPRISSEQDYTCIAENAVSNLSFSVSAQKLCEDVKIQYTDTKMGSHHHHHH
notes: Expressed in HEK293 cells and purified on a Ni column (Novoprotein/BonOpus); The N-terminus is heterogeneous; also called seSLAMF6-V3; soluble ectodomain of SLAMF6^var3
Does B4 bind [1]?
Result: binds
